The values that follow come from patent publication US20050089840A1 (FRONTIER BIOTECHNOLOGIES, published 2005).

Test [1] deals with HIV-1 IIIB viral envelope protein gp41 (HIV-1 IIIB) (UniProt P04578). The test can be described thus: cell-based or functional assay.
Test [2] concerns the target HIV-1 IIIB viral envelope protein gp41 (HIV-1 IIIB, UniProt P04578 512-856). The test can be described thus: cell-based or functional assay.

Turning to “FB006M conjugated with human serum albumin (HSA) (from UniProt P02768 25-609)”, in test [1], the IC50 (nM), 50% viral inhibition drug concentration, HIV-1 IIIB in fresh human PBMC cultures was found to be 3.94 nM and the fold increase of the antiviral IC50 against FB006 was determined as 2.8 fold.
For the molecule Ac-WEEWDREINNYTKLIHELIEESQNQQEKNEQELL-NH2 [FB006], the “IC50 (nM), 50% viral inhibition drug concentration, HIV-1 IIIB in fresh human PBMC cultures” value in test [2] came to 1.41 nM.
Same read-out and setting: the result for Ac-SLEQIWNNMTWEEWDREINNYTELIHELIEESQNQQEKNEQELL-NH2 [FB005] reads 0.93 nM.
